The results in this text go back to publication PMC10228794.

The test deals with 10.17DT SOSIP. Put plainly: SPR. To be noted: mutated DH270 UCA antibodies were injected at 100nM; 3000–4000 RUs of 10.17DT on the sensor chip; parent: est. 43; read off a plot.

As to “DH270 UCA IgG (unmutated common ancestor of bnAb DH270.6) I102D”, the response was determined as 6.5 RU.
The result for “DH270 UCA IgG (unmutated common ancestor of bnAb DH270.6) I102L” reads 29 RU; that for “DH270 UCA IgG (unmutated common ancestor of bnAb DH270.6) I102N”, 43 RU.
Take “DH270 UCA IgG (unmutated common ancestor of bnAb DH270.6) I102S”: the response came to 34 RU.
The result for “DH270 UCA IgG (unmutated common ancestor of bnAb DH270.6) I102V” reads 54 RU.
With “DH270 UCA IgG (unmutated common ancestor of bnAb DH270.6) W101F”, the response turned out to be 36 RU.
The result for “DH270 UCA IgG (unmutated common ancestor of bnAb DH270.6) W101G” reads 3.5 RU.
Turning to “DH270 UCA IgG (unmutated common ancestor of bnAb DH270.6) W101R”, the response was determined as 0 RU.
Turning to “DH270 UCA IgG (unmutated common ancestor of bnAb DH270.6) W101Y”, the response was determined as 15 RU.
As to “DH270 UCA IgG (unmutated common ancestor of bnAb DH270.6) Y111F”, the response came out at 38 RU.
Then “DH270 UCA IgG (unmutated common ancestor of bnAb DH270.6) Y111H”, with 25 RU; and “DH270 UCA IgG (unmutated common ancestor of bnAb DH270.6) Y111N”, with 0 RU; and “DH270 UCA IgG (unmutated common ancestor of bnAb DH270.6) Y111W”, with 26 RU.
